The source of these data is patent publication US20220064648.

Like-named read-outs stand apart in the source and are kept apart here.

The target of data set [1] is SNAP25 full length (Homo sapiens) (UniProt P60880). To be noted: W indole-dU, X amine-dU, direct ELISA signal.
In data set [2] the test system is Negative control random peptide. Kind of data set: ELONA. To be noted: W indole, X amine.

Chain of SNAP25 full length (Homo sapiens) (P60880 whole entry): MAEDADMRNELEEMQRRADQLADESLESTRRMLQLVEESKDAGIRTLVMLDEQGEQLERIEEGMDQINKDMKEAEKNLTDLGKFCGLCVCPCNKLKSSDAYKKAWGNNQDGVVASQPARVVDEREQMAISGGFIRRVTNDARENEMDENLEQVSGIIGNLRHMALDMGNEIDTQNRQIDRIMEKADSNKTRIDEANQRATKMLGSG

In data set [1] (Y phenol-dU [phenol-dU@19], negative peptide 64), “TTTTTAAGCCCACGACACTGTGGCCAACACAGTACATGCATGTGGGCCCATG [PEP 3.07]” yielded a binding signal of 10. On to “TTTTTAACACGACAGCCCTGTGCAGGCCGAACGGCGTTGATGTCGTGCCATG [PEP 4.12]”, for which the binding signal in data set [1] (Y phenol-dU [19,46 phenol-dU, 38 indole-dU, 43 amine-dU], negative peptide 3) is 0. With “TTTTTAAGCCCACCAGGGTTCGGGAGCCGAACGCCAGCACTGTCGTGCCATG [PEP 3.24]”, in data set [1] (Y phenol-dU [19 (indole-dU), 20,46 (phenol-dU), 43 (amine-dU)], negative peptide 22), the binding signal was 5. In data set [2] (Y phenol modified dU [16,19,25,36,43,46]), “TTTTTAACACGACCATCCTGTGCCTCACGAACTCATTGCCCGTCGTGCCATG [PEP 1.02]” registered a binding signal of 15 ELISA signal. For the sequence “TTTTTAAGCCCACATACGTTCGATGGTCACAGATTGGGCAAGTCGTGCCATG [PEP 2.02]”, the binding signal in data set [2] (Y phenol modified dU [15,19,20,24,27,34,35,43,46]) came out at 55 ELISA signal. The sequence “TTTTTAAGCCCACTGGCCTGTGGTCAGCGAACTGTGCGCTGGTGGGCCCATG [PEP 2.10]” yielded a binding signal in data set [1] (Y phenol-dU [14,19,24,35,40], negative peptide 2) of 7. As to “TTTTTAACACGACATATGTTCGACGGACACAGTGTGTGGCGGTCGTGCCATG [PEP 4.09]”, the binding signal in data set [2] (Y phenol modified dU [15,17,19,20,35,43,46]) stood at 0 ELISA signal. “TTTTTAACACGACAGCACTGTGCACAGCACAGCTCAAGGGTGTGGGCCCATG [PEP 3.10]” returned a binding signal in data set [1] (Y phenol-dU [phenol-dU@19,34], negative peptide 51) of 10. On to “TTTTTAAGCCCACGGGTGTTCGACAGACACAGCAATACATCGTGGGCCCATG [SNAP.03]”, for which the binding signal in data set [2] (Y phenol modified dU [17,19,20,36,40]) is 21 ELISA signal. Consider “TTTTTAAGCCCACAAAAGTTCGGGCAGCACAGGTCGCTGAGGTCGTGCCATG [PEP 4.14]”, for which the binding signal in data set [1] (Y phenol-dU [19,38 indole-dU, 20,34,46 phenol-dU, 43 amine-dU], negative peptide 15) was 2.

For “TTTTTAACACGACCGCCCTGTGGGCAACACAGGGATCTGCAGTCGTGCCATG [PEP 1.24]”, the binding signal in data set [1] (Y phenol-dU [phenol-dU @19,46, indole-dU @36,38, amine-dU @43], negative peptide 9) came out at 8. In the case of “TTTTTAACACGACGTGACTGTGAGAGGCACAGTTTGGGGGCGTGGGCCCATG [PEP 4.15]”, the binding signal in data set [1] (Y phenol-dU [15,19,34,35 phenol-dU], negative peptide 7) is 4.

On to “TTTTTAACACGACGTTACTGTGGTCACCACAGGATGAGCTTGTCGTGCCATG [PEP 2.15]”, for which the binding signal in data set [1] (Y phenol-dU [15,16,19,24,35,40,43,46], negative peptide 9) is 0. As to “TTTTTAACACGACGTTACTGTGGTCATCACAGGATGAGCCTGTCGTGCCATG [PEP 2.18]”, the binding signal in data set [1] (Y phenol-dU [phenol-dU@15,19,35,46, indole-dU@16,24, amine-dU@27,43], negative peptide 9) came out at 0.

On to “TTTTTAAGCCCACATGCCTGTGGTCATCGAACATTGGGCCGGTCGTGCCATG [PEP 2.13]”, for which, in data set [1] (Y phenol-dU [15,19,24,27,34,35,43,46], negative peptide 11), the binding signal came out at 0. “TTTTTAAGCCCACAAGCGTTCGGCTCTCATAGATCGTTGACGTGGGCCCATG [PEP 4.19]” displayed a binding signal in data set [1] (Y phenol-dU [19,20,25,27,34,38], negative peptide 0) of 0.

For “TTTTTAACACGACTATTCTGTGAGTCTCGAACTGCGACAACGTGGGCCCATG [PEP 4.18]”, the binding signal in data set [1] (Y phenol-dU [14,16,17,19,25,27], negative peptide 4) is 10. With “TTTTTAACACGACGCTCCTGTGACAGCCGAACATCATTGGTGTCGTGCCATG [PEP 1.04]”, the binding signal in data set [1] (Y phenol-dU [16 indole-dU, 19 phenol-dU, 34 phenol-dU, 38 indole-dU, 43 amine-dU, 46 phenol-dU], negative peptide 4) came out at 5.

Consider “TTTTTAACACGACACCACTGTGCCCACCACAGTTCACTGAAGTGGGCCCATG [PEP 3.14]”, for which, in data set [1] (Y phenol-dU [19,34 (phenol-dU), 38 (indole-dU)], negative peptide 52), the binding signal amounted to 8.

As to “TTTTTAAGCCCACGGTGCTGTGGAAGCCACAGTACAATGGAGTGGGCCCATG [PEP 4.22]”, in data set [1] (Y phenol-dU [16,19,38], negative peptide 3), the binding signal came to 5. As to “TTTTTAAGCCCACCTGACTGTGGTGGGCACAGTTCGCCATCGTGGGCCCATG [PEP 1.14]”, in data set [1] (Y phenol-dU [15 phenol-dU, 19 phenol-dU, 24 indole-dU, 34 phenol-dU, 40 indole-dU], negative peptide 5), the binding signal turned out to be 2. For the sequence “TTTTTAACACGACATAGGTTCGCTGGTCACAGAATGTTGTGGTGGGCCCATG [PEP 2.09]”, the binding signal in data set [1] (Y phenol-dU [15,19,20,24,27,35,38,40], negative peptide 5) turned out to be 9. In data set [1] (Y phenol-dU [amine-dU @14,25,43, phenol-dU @15,19,46, indole-dU @38], negative peptide 0), “TTTTTAAGCCCACTTCACTGTGGCTCGCACAGGCCGATGGGGTCGTGCCATG [PEP 1.23]” had a binding signal of 0. In data set [1] (Y phenol-dU [16,17,40 indole-dU, 19 phenol-dU], negative peptide 5), “TTTTTAACACGACCATTCTGTGCCAGCCGAACTCCGTGCTGGTGGGCCCATG [PEP 4.08]” came in with a binding signal of 9. In turn, “TTTTTAAGCCCACACGTGTTCGGATCGCACAGTTATTGGCAGTCGTGCCATG [PEP 4.20]” yielded a binding signal in data set [1] (Y phenol-dU [17,19,20,25,34,36,43,46], negative peptide 3) of 4. “TTTTTAAGCCCACCCGAGTTCGTCCAGCGAACCACGCGCGTGTCGTGCCATG [PEP 4.11]” had a binding signal in data set [2] (Y phenol modified dU [19,20,23,43,46]) of 0 ELISA signal. As to “TTTTTAAGCCCACGGGGCTGTGAGCAACGAACATTGGCACAGTCGTGCCATG [PEP 4.21]”, in data set [1] (Y phenol-dU [19,34,35,43,46], negative peptide 8), the binding signal is 0. “TTTTTAACACGACGTTACTGTGGTCACCACAGGATGAGGCTGTCGTGCCATG [PEP 2.17]” displayed a binding signal in data set [1] (Y phenol-dU [phenol-dU@15,19,35,46, indole-dU@16,24, amine-dU@43], negative peptide 12) of 2.

The sequence “TTTTTAACACGACATAGCTGTGACAGGCACAGGTCATGGGAGTCGTGCCATG [PEP 1.19]” yielded a binding signal in data set [1] (Y phenol-dU [phenol-dU @15,19,34,46, amine-dU @43], negative peptide 3) of 0.

The sequence “TTTTTAACACGACATCACTGTGGAAGACACAGGACGTGCGTGTCGTGCCATG [PEP 3.22]” registered a binding signal in data set [1] (Y phenol-dU [15,19,46 (phenol-dU), 43 (amine-dU)], negative peptide 26) of 7. “TTTTTAAGCCCACGGCCGTTCGGCCACCACAGTGTGGCAGCGTCGTGCCATG [PEP 4.13]” had a binding signal in data set [1] (Y phenol-dU [19 indole-dU, 20,35,46 phenol-dU, 43 amine-dU], negative peptide 0) of 0.

For “TTTTTAACACGACGTCGCTGTGGTCAACGAACAGATACAACGTCGTGCCATG [PEP 2.07]”, in data set [1] (Y phenol-dU [15,19,24,36,43,46], negative peptide 17), the binding signal worked out at 8. In data set [1] (Y phenol-dU [17,19,24], negative peptide 7), “TTTTTAAGCCCACGGGTCTGTGGTCACCGAACGACGTGGCAGTGGGCCCATG [PEP 2.14]” had a binding signal of 2. Sequence “TTTTTAACACGACTTGGGTTCGGAAGGCGAACCGCAGCAATGTGGGCCCATG [PEP 1.22]” gave a binding signal in data set [1] (Y phenol-dU [amine-dU @14, phenol-dU @15,20, indole-dU @19], negative peptide 2) of 8. Consider “TTTTTAACACGACAGCACTGTGGTTCGCGAACCTCAAGCTCGTCGTGCCATG [PEP 3.02]”, for which the binding signal in data set [2] (Y phenol modified dU [19Y,24W,25X,34Y,40W,43X,46Y]) came to 59 ELISA signal. On to “TTTTTAACACGACTGCACTGTGAATCTCGAACGCATCGGGAGTCGTGCCATG [PEP 3.15]”, for which the binding signal in data set [1] (Y phenol-dU [14,25,27,43 (amine-dU), 19,46 (phenol-dU), 36 (indole-dU)], negative peptide 39) amounted to 9. Sequence “TTTTTAAGCCCACCTCACTGTGCAAGTCACAGGTCGGCACCGTGGGCCCATG [PEP 3.23]” came in with a binding signal in data set [1] (Y phenol-dU [15,19,34 (phenol-dU), 27 (amine-dU)], negative peptide 35) of 5. “TTTTTAAGCCCACTTGGCTGTGCACATCACAGAACAAGCAGGTGGGCCCATG [PEP 2.11]”: the binding signal in data set [1] (Y phenol-dU [14,15,19,27], negative peptide 2) is 0. In the case of “TTTTTAACACGACGCCAGTTCGAAGGTCACAGTTATTTGGCGTCGTGCCATG [PEP 1.11]”, the binding signal in data set [1] (Y phenol-dU [19 indole-dU, 20 phenol-dU, 27 amine-dU, 34 phenol-dU, 36 indole-dU, 38 indole-dU, 43 amine-dU, 46 phenol-dU], negative peptide 11) is 4.

The sequence “TTTTTAAGCCCACATAGGTTCGGTGGTCACAGTGTGGTGCGGTGGGCCCATG [PEP 2.16]” had a binding signal in data set [1] (Y phenol-dU [15,19,20,24,27,35,38], negative peptide 5) of 4. In the case of “TTTTTAAGCCCACGTTTGTTCGGTGGTCACAGCACGCCACGGTCGTGCCATG [PEP 2.08]”, in data set [1] (Y phenol-dU [15,16,17,19,20,24,27,43,46], negative peptide 9), the binding signal is 8.

“TTTTTAACACGACGTTACTGTGGTCACCACAGGATGAGCCTGTCGTGCCATG [PEP 2.01]” showed a binding signal in data set [2] (Y phenol modified dU [15,16,19,24,35,43,46]) of 204 ELISA signal. In data set [1] (Y phenol-dU [19,20,24,38], negative peptide 0), “TTTTTAAGCCCACGCCAGTTCGGTCAACGAACTACGGTGATGTGGGCCCATG [PEP 4.17]” gave a binding signal of 0.
